Results: article PMC3592467 (Nucleic Acids Research, 2012)

B1: PRP19 (natural protein)
chain: MSLICSISNEVPEHPCVSPVSNHVYERRLIEKYIAENGTDPINNQPLSEEQLIDIKVAHPIRPKPPSATSIPAILKALQDEWDAVMLHSFTLRQQLQTTRQELSHALYQHDAACRVIARLTKEVTAAREALATLKPQAGLIVPQAVPSSQPSVVGAGEPMDLGELVGMTPEIIQKLQDKATVLTTERKKRGKTVPEELVKPEELSKYRQVASHVGLHSASIPGILALDLCPSDTNKILTGGADKNVVVFDKSSEQILATLKGHTKKVTSVVFHPSQDLVFSASPDATIRIWSVPNASCVQVVRAHESAVTGLSLHATGDYLLSSSDDQYWAFSDIQTGRVLTKVTDETSGCSLTCAQFHPDGLIFGTGTMDSQIKIWDLKERTNVANFPGHSGPITSIAFSENGYYLATAADDSSVKLWDLRKLKNFKTLQLDNNFEVKSLIFDQSGTYLALGGTDVQIYICKQWTEILHFTEHSGLTTGVAFGHHAKFIASTGMDRSLKFYSL
B2: PLRG1 (natural protein)
chain: MVEEVQKHSVHTLVFRSLKRTHDMFVADNGKPVPLDEESHKRKMAIKLRNEYGPVLHMPTSKENLKEKGPQNATDSYVHKQYPANQGQEVEYFVAGTHPYPPGPGVALTADTKIQRMPSESAAQSLAVALPLQTKADANRTAPSGSEYRHPGASDRPQPTAMNSIVMETGNTKNSALMAKKAPTMPKPQWHPPWKLYRVISGHLGWVRCIAVEPGNQWFVTGSADRTIKIWDLASGKLKLSLTGHISTVRGVIVSTRSPYLFSCGEDKQVKCWDLEYNKVIRHYHGHLSAVYGLDLHPTIDVLVTCSRDSTARIWDVRTKASVHTLSGHTNAVATVRCQAAEPQIITGSHDTTIRLWDLVAGKTRVTLTNHKKSVRAVVLHPRHYTFASGSPDNIKQWKFPDGSFIQNLSGHNAIINTLTVNSDGVLVSGADNGTMHLWDWRTGYNFQRVHAAVQPGSLDSESGIFACAFDQSESRLLTAEADKTIKVYREDDTATEETHPVSWKPEIIKRKRF
B3: Spf27 (natural protein)
chain: MAGTGLVAGEVVVDALPYFDQGYEAPGVREAAAALVEEETRRYRPTKNYLSYLTAPDYSAFETDIMRNEFERLAARQPIELLSMKRYELPAPSSGQKNDITAWQECVNNSMAQLEHQAVRIENLELMSQHGCNAWKVYNENLVHMIEHAQKELQKLRKHIQDLNWQRKNMQLTAGSKLREMESNWVSLVSKNYEIERTIVQLENEIYQIKQQHGEANKENIRQDF
B4: CTNNBL1 (natural protein)
chain: MDVGELLSYQPNRGTKRPRDDEEEEQKMRRKQTGTRERGRYREEEMTVVEEADDDKKRLLQIIDRDGEEEEEEEEPLDESSVKKMILTFEKRSYKNQELRIKFPDNPEKFMESELDLNDIIQEMHVVATMPDLYHLLVELNAVQSLLGLLGHDNTDVSIAVVDLLQELTDIDTLHESEEGAEVLIDALVDGQVVALLVQNLERLDESVKEEADGVHNTLAIVENMAEFRPEMCTEGAQQGLLQWLLKRLKAKMPFDANKLYCSEVLAILLQDNDENRELLGELDGIDVLLQQLSVFKRHNPSTAEEQEMMENLFDSLCSCLMLSSNRERFLKGEGLQLMNLMLREKKISRSSALKVLDHAMIGPEGTDNCHKFVDILGLRTIFPLFMKSPRKIKKVGTTEKEHEEHVCSILASLLRNLRGQQRTRLLNKFTENDSEKVDRLMELHFKYLGAMQVADKKIEGEKHDMVRRGEIIDNDTEEEFYLRRLDAGLFVLQHICYIMAEICNANVPQIRQRVHQILNMRGSSIKIVRHIIKEYAENIGDGRSPEFRENEQKRILGLLENF
B5: AD-002 (natural protein)
chain: MTTAARPTFEPARGGRGKGEGDLSQLSKQYSSRDLPSHTKIKYRQTTQDAPEEVRNRDFRRELEERERAAAREKNRDRPTREHTTSSSVSKKPRLDQIPAANLDADDPLTDEEDEDFEEESDDDDTAALLAELEKIKKERAEEQARKEQEQKAEEERIRMENILSGNPLLNLTGPSQPQANFKVKRRWDDDVVFKNCAKGVDDQKKDKRFVNDTLRSEFHKKFMEKYIK

These binders were tested against CDC5L–GFP (UniProt Q99459 1-802) (assay: affinity purification with mass spectrometry).
Sequence of CDC5L–GFP (Q99459 whole entry): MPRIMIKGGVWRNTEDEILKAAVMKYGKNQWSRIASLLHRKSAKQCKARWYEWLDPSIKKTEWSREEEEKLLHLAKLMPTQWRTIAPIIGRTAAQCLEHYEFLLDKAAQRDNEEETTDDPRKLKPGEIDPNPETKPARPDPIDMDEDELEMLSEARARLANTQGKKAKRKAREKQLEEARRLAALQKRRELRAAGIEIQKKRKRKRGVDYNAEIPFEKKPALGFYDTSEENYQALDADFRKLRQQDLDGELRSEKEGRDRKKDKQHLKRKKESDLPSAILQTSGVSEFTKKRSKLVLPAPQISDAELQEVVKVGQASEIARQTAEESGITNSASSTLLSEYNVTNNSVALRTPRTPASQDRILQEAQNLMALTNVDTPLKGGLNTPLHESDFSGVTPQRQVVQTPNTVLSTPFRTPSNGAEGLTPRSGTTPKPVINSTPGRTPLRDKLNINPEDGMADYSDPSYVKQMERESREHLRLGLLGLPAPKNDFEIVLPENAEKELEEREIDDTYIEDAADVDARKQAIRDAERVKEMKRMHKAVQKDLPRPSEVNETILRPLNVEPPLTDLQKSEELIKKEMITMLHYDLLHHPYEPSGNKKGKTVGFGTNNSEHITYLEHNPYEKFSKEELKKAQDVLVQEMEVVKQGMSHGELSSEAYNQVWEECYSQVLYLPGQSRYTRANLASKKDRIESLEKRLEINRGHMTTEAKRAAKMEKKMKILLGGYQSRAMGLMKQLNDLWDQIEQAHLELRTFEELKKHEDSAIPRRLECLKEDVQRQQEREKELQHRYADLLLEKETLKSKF
With B1 the “stoichiometry N” value was 2.08 relative to CDC5L and the “stoichiometry with CDC5L as a dimer (CDC5L 2)” value (from here on “stoichiometry with CDC5L”) was 4.16 per CDC5L dimer. For B2, the “stoichiometry N” value was 0.37 relative to CDC5L and the “stoichiometry with CDC5L” value was 0.72 per CDC5L dimer. In the case of B3, the “stoichiometry N” value is reported as 0.62 relative to CDC5L and the “stoichiometry with CDC5L” value is reported as 1.24 per CDC5L dimer. For B4, the “stoichiometry N” value was 0.06 relative to CDC5L and the “stoichiometry with CDC5L” value was 0.12 per CDC5L dimer. For B5, the “stoichiometry N” value was 0.36 relative to CDC5L and the “stoichiometry with CDC5L” value was 0.72 per CDC5L dimer.
